Data as given in paper PMC4403447.

How the values were obtained:
[1] = target: Sti1 G193C–G309C N39A, labelled with ATTO 532 and ATTO 647 (S. cerevisiae) (UniProt P15705)
[2] = target: Sti1 G193C–G309C, labelled with ATTO 532 and ATTO 647 (S. cerevisiae) (UniProt P15705)
[3] = target: Sti1 G193C–G309C N435A, labelled with ATTO 532 and ATTO 647 (S. cerevisiae) (UniProt P15705)
Sti1 G193C–G309C N435A, labelled with ATTO 532 and ATTO 647 (S. cerevisiae), sequence (P15705 whole entry G193C/G309C/N435A): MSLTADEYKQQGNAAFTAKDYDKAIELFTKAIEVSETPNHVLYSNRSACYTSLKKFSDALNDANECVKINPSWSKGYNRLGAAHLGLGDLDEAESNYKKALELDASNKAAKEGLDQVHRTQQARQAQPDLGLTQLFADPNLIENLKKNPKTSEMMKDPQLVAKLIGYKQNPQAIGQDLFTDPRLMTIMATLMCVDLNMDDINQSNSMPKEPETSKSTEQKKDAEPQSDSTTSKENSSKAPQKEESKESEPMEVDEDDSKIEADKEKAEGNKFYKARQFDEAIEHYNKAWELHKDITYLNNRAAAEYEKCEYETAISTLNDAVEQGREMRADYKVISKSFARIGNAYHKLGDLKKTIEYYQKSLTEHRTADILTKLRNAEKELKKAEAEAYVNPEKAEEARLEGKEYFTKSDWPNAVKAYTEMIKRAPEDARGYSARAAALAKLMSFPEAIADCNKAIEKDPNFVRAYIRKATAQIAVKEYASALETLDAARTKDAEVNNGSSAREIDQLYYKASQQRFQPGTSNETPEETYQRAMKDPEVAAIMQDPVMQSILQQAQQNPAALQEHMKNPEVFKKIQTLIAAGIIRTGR

yHsp70 (Ssa1), P10591 1-642 (natural protein; ATTO 532 and ATTO 647 on the two cysteines (labelled stochastically)), sequence (P10591 whole entry): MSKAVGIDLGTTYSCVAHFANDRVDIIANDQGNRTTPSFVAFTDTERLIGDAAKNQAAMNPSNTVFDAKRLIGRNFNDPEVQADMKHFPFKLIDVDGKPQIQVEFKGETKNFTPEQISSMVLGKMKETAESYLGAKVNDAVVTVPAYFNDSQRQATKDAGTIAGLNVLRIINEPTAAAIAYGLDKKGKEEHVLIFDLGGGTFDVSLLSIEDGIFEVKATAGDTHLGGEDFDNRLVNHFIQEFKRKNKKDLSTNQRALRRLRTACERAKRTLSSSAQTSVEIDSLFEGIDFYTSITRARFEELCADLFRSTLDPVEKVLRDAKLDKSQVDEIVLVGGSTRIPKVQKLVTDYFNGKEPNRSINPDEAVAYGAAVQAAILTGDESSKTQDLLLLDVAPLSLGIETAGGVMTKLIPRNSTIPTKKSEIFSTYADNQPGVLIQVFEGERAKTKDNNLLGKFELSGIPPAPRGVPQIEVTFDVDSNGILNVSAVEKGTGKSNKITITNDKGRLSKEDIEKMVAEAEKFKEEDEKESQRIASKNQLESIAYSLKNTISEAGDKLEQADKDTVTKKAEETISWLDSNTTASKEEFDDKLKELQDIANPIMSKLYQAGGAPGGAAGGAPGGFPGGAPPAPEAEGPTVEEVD
Sti1 G193C–G309C, labelled with ATTO 532 and ATTO 647 (S. cerevisiae), sequence (P15705 whole entry G193C/G309C): as the sequence (P15705 whole entry G193C/G309C/N435A) above, with A435N counted along it
Sti1 G193C–G309C N39A, labelled with ATTO 532 and ATTO 647 (S. cerevisiae), sequence (P15705 whole entry N39A/G193C/G309C): as the sequence (P15705 whole entry G193C/G309C/N435A) above, with N39A, A435N counted along it

Row | dynamic traces (%) in surface-based spFRET (TIRF) of Sti1 encapsulated in vesicles with 25 μM Hsp70; 13 without Hsp [1] | dynamic traces (%) in surface-based spFRET (TIRF) of Sti1 encapsulated in vesicles with 25 μM Hsp70; 17 without Hsp [2] | dynamic traces (%) in surface-based spFRET (TIRF) of Sti1 encapsulated in vesicles with 25 μM Hsp70; 17 without Hsp [3] | dynamic traces (%) in surface-based spFRET (TIRF) of Sti1 encapsulated in vesicles with 10 μM Hsp90; 13 without Hsp [1] | dynamic traces (%) in surface-based spFRET (TIRF) of Sti1 encapsulated in vesicles with 10 μM Hsp90; 17 without Hsp [2] | dynamic traces (%) in surface-based spFRET (TIRF) of Sti1 encapsulated in vesicles with 10 μM Hsp90; 17 without Hsp [3] | Substance
1 | 27% | 28% | 15% | – | – | – | yHsp70 (Ssa1), P10591 1-642 (natural protein; ATTO 532 and ATTO 647 on the two cysteines (labelled stochastically))
2 | – | – | – | 27% | 31% | 26% | yHsp90 (Hsp82), P02829 1-709 (natural protein; ATTO 532 and ATTO 647 on the two cysteines (labelled stochastically))
